Measurements from US11726088B2, “Sirtuin 4 (SIRT4) lipoamidase activity and uses thereof” (THE TRUSTEES OF PRINCETON UNIVERSITY, priority 2014, dated 2023).
Primed or numbered codes have the meaning given here. Ends that are not written are not given here. * marks the point of attachment. lipoyl″ = O=C(CCCC[C@@H]1CCSS1)*

Key:
SIRT4 [1] = target: T1, SIRT4 (Homo sapiens, UniProt Q9Y6E7); experiment: HPLC-based SIRT4 kinetics assays (steady-state, acyl-modified peptide substrates); assay type: biochemical
T1 construct: 6xHis (followed by human rhinovirus 3C protease site) (N); made in house; host or cells: E. coli BL21(DE3), co-expressed with GroEL and GroES
T1 sequence (Q9Y6E7 33-314): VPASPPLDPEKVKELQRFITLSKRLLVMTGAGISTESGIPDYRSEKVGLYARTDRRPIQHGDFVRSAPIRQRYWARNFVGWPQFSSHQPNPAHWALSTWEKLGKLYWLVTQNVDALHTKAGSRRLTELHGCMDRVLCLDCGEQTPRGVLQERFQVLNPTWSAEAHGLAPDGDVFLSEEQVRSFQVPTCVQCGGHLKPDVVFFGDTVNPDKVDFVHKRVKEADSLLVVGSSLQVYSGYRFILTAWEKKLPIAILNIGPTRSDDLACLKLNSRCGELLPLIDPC
From the text: Recombinant SIRT4 protein expression and purification. N-terminally truncated human Sirt4 (33-314 of SEQ ID NO: 2) was cloned into a derivative of pET-15b containing a human rhinovirus 3C Protease cleavage site in place of its thrombin cleavage site. 6×His-Sirt4 was co-expressed with GroEL and GroES in BL21(DE3) E. coli in order to promote proper protein folding. Protein was purified using immobilized-metal affinity chromatography (IMAC) followed by anion-exchange chromatography to remove associated folding chaperones. For some experiments the His-tag was removed using 3C protease. Protein was concentrated, snap frozen in N2(l), and stored at −80° C. HPLC-based SIRT4 kinetics assays. SIRT4 kinetic assays were essentially performed as described by others^3,4. Briefly, enzyme reactions (20 μL) were performed in 50 mM Tris, pH 8.0, containing 5 μM recombinant SIRT4 and varying concentrations (0 to 2500 μM) of H3K9- or DLAT-modified peptides with either acetyl-lysine, biotinyl-lysine, or lipoyl-lysine. Reactions were initiated by addition of NAD (1 mM) and incubated at 25° C. for between 30-120 min, depending on substrate-specific reaction rates and to maintain steady-state conditions. Reactions were quenched with formic acid to a final concentration of 0.5% (v/v) and analyzed by HPLC-UV detection (Ultimate 3000 RSLC/VWD-3400). Substrate and product were separated by reverse-phase chromatography (Acclaim PepMap RSLC, 75 μm×15 cm) at 0.75 μL/min. Product concentration was measured by peak integration of A280 signals. Initial reaction velocities were determined in at least duplicate and fit to a modified Briggs-Haldane equation, which substituted kcat×[SIRT4] for Vmax and allowed determination of kinetic parameters, kcat, Km and kcat/Km and their associated error (±SEM), using GraphPad Prism 5. SIRT4's catalytic efficiency towards the various acyl-modified peptide substrates was assessed (Table 1 below).

SIRT4 [2] = target: T1, SIRT4; experiment: LC-MS-based in vitro peptide deacylation assay; assay type: biochemical; settings: 5 μM SIRT4, 10 uM peptide, with NAD, 1 hr at 37° C.
From the text: Recombinant SIRT4 protein expression and purification. N-terminally truncated human Sirt4 (33-314 of SEQ ID NO: 2) was cloned into a derivative of pET-15b containing a human rhinovirus 3C Protease cleavage site in place of its thrombin cleavage site. 6×His-Sirt4 was co-expressed with GroEL and GroES in BL21(DE3) E. coli in order to promote proper protein folding. Protein was purified using immobilized-metal affinity chromatography (IMAC) followed by anion-exchange chromatography to remove associated folding chaperones. For some experiments the His-tag was removed using 3C protease. Protein was concentrated, snap frozen in N2(l), and stored at −80° C.
LC-MS-based in vitro peptide deacylation assay. The ability of SIRT4 to hydrolyze various acyl-lysine modifications was measured using LC-MS. In 20 μL reaction volume, 10 uM peptide (lipoyl-, biotinyl-, or acetyl-lysine) was incubated with increasing concentrations of SIRT4 (0.5 μM, 2.5 μM, and 5 μM), with or without NAD, in 50 mM TrisHCl, pH 8, 137 mM NaCl, 2.7 mM KCl and 1 mM MgCl2, for 1 hr at 37° C. Reactions were quenched with 25 μL of 2% TFA and an internal control peptide was spiked in to monitor for run-to-run variability. Reaction products were desalted, eluted, concentrated and analyzed by nano-LC-MS/MS, as above, but altered LC gradients. A 30 min linear gradient from 4-40% B was used for all peptides, except for lipoyl-lysine biological peptides, which used a 12-70% B linear gradient. Data were imported into Skyline software (version 2.1) to obtain precursor extracted ion chromatographams (XICs) using the following settings: Isotope Count, 3; precursor mass analyzer, Orbitrap; Resolving power, 60,000 @ 400 Th. The retention times of substrate (modified) and product (unmodified) peptides were confirmed by fragmentation spectra and peak integration boundaries were manually inspected. Three biological replicates were analyzed for each reaction.
The lipoamide cofactor bound to E2 (transferase enzymes) is required for dehydrogenase complex activity (FIG. 1b). Given that other mitochondrial SIRTs can hydrolyze various […] group lysine modifications^3,4 and that all PDHC components were present in our SIRT4 isolation, we speculated that E2 dehydrogenase components may be biological substrates of SIRT4, and that SIRT4 may directly hydrolyze the lipoamid modification. To test this we screened the in vitro activity of recombinant SIRT4 against differentially-modified synthetic peptides (FIG. 10). Firstly, SIRT4 activity towards acyl-modified H3K9 peptides (SEQ ID NOs: 3-5) was measured using a liquid-chromatography (LC)-MS-based deacylation assay. SIRT4 was incubated with H3K9 peptides modified with acetyl-lysine (SEQ ID NO: 5), biotinyl-lysine (SEQ ID NO: 4) or lipoyl-lysine (SEQ ID NO: 3), in the presence or absence of NAD. Following reaction, the remaining unreacted substrates and newly generated unmodified peptides were identified and quantified by LC-MS (FIG. 2A, 2G-2I and FIG. 5). […] To compare the relative preference of SIRT4 for these different substrates, we used extracted ion chromatograms to quantify unreacted substrate (S) and product (P) amounts from all reactions, and represented the percentage of unmodified peptide generated (FIG. 2H). […] The relative amount of unmodified product generated using 5 μM SIRT4 was 11% (lipoyl—SEQ ID NO: 3), 3% (biotinyl—SEQ ID NO: 4) and 0.3% (acetyl—[…]) (FIG. 2B and FIG. 2H, H3K9 substrates). […]

SIRT5 = target: T2, SIRT5 (Homo sapiens, UniProt Q9NXA8); experiment: Kinetic analysis of SIRT5 with DLAT K259 peptides; assay type: biochemical
T2 construct: purchased Sigma SRP0119-100UG
T2 sequence (Q9NXA8 37-310): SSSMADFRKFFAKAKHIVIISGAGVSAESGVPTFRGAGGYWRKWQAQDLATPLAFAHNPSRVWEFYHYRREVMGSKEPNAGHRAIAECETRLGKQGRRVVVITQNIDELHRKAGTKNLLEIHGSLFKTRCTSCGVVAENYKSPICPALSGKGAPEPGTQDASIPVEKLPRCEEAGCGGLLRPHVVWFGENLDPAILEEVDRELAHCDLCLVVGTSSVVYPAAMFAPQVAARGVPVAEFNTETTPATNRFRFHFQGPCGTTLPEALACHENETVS

SIRT3 = target: T3, SIRT3 (Homo sapiens, UniProt Q9NTG7); experiment: Steady-state kinetic analysis of SIRT3 with DLAT K259 peptides; assay type: biochemical
T3 construct: purchased Sigma SRP0117-100UG
T3 sequence (Q9NTG7 1-399): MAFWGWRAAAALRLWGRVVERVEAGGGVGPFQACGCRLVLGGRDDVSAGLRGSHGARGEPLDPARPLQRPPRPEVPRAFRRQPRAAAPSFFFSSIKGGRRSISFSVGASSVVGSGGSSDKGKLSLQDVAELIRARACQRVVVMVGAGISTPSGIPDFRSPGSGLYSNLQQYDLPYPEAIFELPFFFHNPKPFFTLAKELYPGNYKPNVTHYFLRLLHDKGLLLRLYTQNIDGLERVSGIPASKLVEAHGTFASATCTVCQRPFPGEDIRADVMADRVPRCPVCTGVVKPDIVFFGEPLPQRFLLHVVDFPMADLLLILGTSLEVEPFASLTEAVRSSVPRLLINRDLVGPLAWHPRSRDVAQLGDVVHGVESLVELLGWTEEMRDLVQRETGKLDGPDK

SIRT4 mRNA = experiment: SIRT4 knock-down efficiency by qRT-PCR in MRC5 cells stably expressing shRNA; assay type: cell-based, human; settings: MRC5 fibroblasts, mRNA level by qPCR; listed as construct #5
From the text: SIRT4 shRNA expression. pLKO.1-puro vectors containing either non-targeting control shRNA or SIRT4-targeting shRNA were purchased from Sigma-Aldrich and are listed in FIG. 11. To generate MRC5 cells stably expressing each of the shRNA constructs, HEK293T cells were co-transfected with appropriate pLKO.1 vector, pCMVΔR8.2 (Addgene, plasmid #12263) and pMD2.G (Addgene, plasmid #12259) using FuGENE 6. Media containing lentivirus particles were used to transduce MRC5 cells, which were subsequently selected with 2 μg/mL puromycin (InvivoGen, cat. #ant-pr-1). Knockdown efficiency was measured by qRT-PCR and western blotting.
qRT-PCR analysis. For qRT-PCR analysis, MRC5 cells were collected and washed with PBS. Total RNA was isolated from cell pellets using RNeasy Mini Kit (Qiagen, cat. #74104) and the concentration/purity determined by measuring the absorbance 260/280 nm using NanoDrop Spectrophotometer (Thermo Fisher Scientific). For cDNA synthesis, 1 μg of RNA from each sample was first treated with DNase I (Life Technologies, cat. #18068015) and then used as a template in the RETROscript kit (Life Technologies, cat. #AM1710). The cDNAs were mixed with appropriate primers listed in FIG. 12 and Power SYBR green PCR master mix (Life Technologies, cat. #4368706) for qRT-PCR on ABI 7900HT Real-Time Thermocycler (Applied Biosystems). […]

[3] = SIRT4 enzyme concentration = 5 μM, NAD 1 mM, 25° C.

Substance | Km (SIRT4 [1]; [3]) | kcat (SIRT4 [1]; [3]) | increase in efficiency compared to H3K9 lipoyl (SIRT4 [1]; another experiment (Table 1)) | increased efficiency compared to H3K9 lipoyl (SIRT4 [1]; first experiment) | efficiency of hydrolysis by SIRT4, fold more than deacetylation of MCD (SIRT4 [1]; versus MCD acetyl) | relative amount of unmodified product generated (SIRT4 [2]) | SIRT5 activity (SIRT5) | SIRT3 efficiency, fold lower than for DLAT acetyl (SIRT3) | SIRT3 enzymatic activity (SIRT3) | SIRT4 knock-down (SIRT4 mRNA)
DLAT K259 Lipoyl: synthetic DLAT K259 peptide with lipoyl-lysine (SEQ ID NO: 8) (EIETDK(lipoyl″)ATIGWW) | 239 ± 51 µM | 0.0016 ± 0.0001 s⁻¹ | 3.3 fold | 3.5 fold | ~1270 fold | 33% | no activity was detected | 13 fold | some enzymatic activity | 
shSIRT4 #5: SIRT4-targeting shRNA construct in pLKO.1-puro vector, purchased from Sigma-Aldrich (DNA CCGGACAGGGACTTTCACTTGAATCCTCGAGGATTCAAGTGAAAGTCCCTGTTTTTTG) |  |  |  |  |  |  |  |  |  | > 80%
